The values that follow come from patent US20250034212A1, “PEPTIDE” (PEPTIDREAM INC., priority 2021, published 2025).

The target of assay [1] is T1, recombinant human TGF-β1 (R&D systems) (human, UniProt P01137 279-390).
T1 construct: Bought protein; immobilised on a CM3 chip (SPR) or on Dynabeads (ELISA), added to cells in the SBE reporter assay; also called TGF-β1 beads
Put plainly: SPR, TGF-β1 immobilised, single cycle kinetics. How it is done:
Subsequently, 50 μL of 60 mM EDC solution (Global Life Science Technologies Japan Co., Ltd.) and 50 μL of 650 mM NHS solution (Global Life Science Technologies Japan Co., Ltd.) were mixed. Next, the reaction was carried out at a flow rate of 10 μL/min for 420 seconds. Then, 150 μL of 0.2 μM TGF-β solution diluted in 10 mM acetic acid solution (pH 5.0) was prepared and reacted at a flow rate of 10 μL/min for 420 seconds to immobilize TGF-β on the CM3 sensor chip. TGF-β was human-derived TGF-β1 or β2 (recombinant human TGF-β1, 2) and was obtained from R&D systems. After immobilization, capping was performed by reacting with 1.0 M ethanolamine aqueous solution (Global Life Science Technologies Japan Co., Ltd.) at a flow rate of […] for 420 seconds.
A liquid prepared by dissolving each peptide at 10 mM in DMSO solution was diluted with running buffer to prepare a peptide-dissolved solution at a final concentration of 10 μM. Subsequently, 50 nM, 25 nM, 12.5 nM, 5 nM, and 2.5 nM peptide solutions were prepared. Using the above samples, the kinetics of each peptide against TGF-β was obtained by SPR measurement.
The kinetics evaluation model was Single Cycle Kinetics, and curve fitting was performed using Biacore T200 Evaluation Software Version 3.0 (Global Life Science Technologies Japan Co., Ltd.). The binding of various peptides to TGF-β was evaluated by performing least-squares curve fitting on the obtained sensorgram to calculate the KD value.

In assay [2] the target is T1, recombinant human TGF-β1 (R&D systems). Briefly: cell-based or functional assay.

Starred links: 1 amine or outer side, 2 acyl side, 3 side chain; linkers in the order of their positions; H or OH if unused. Positions of bridges follow the written chain, without caps; N, C: chain ends. Non-standard residues stand in square brackets, D forms with d. No end group written: not given here. KCOmeglumine = N6-(methyl-((2S,3R,4R,5R)-2,3,4,5,6-pentahydroxyhexyl)carbamoyl)-L-lysine, CN(C[C@H](O)[C@@H](O)[C@H](O)[C@H](O)CO)C(=O)NCCCC[C@H](N[*:1])C(=O)[*:2]; KCOpipzaa = N6-(4-(carboxymethyl)piperazine-1-carbonyl)-L-lysine, O=C(NCCCC[C@H](N[*:1])C(=O)[*:2])N1CCN(CC(=O)[*:3])CC1; Trp(6-aza) = N[C@@H](Cc1c[nH]c2cnccc12)C(=O)O; Trp(7-aza) = N[C@@H](Cc1c[nH]c2ncccc12)C(=O)O; 1Nal = N[C@@H](Cc1cccc2ccccc12)C(=O)O; Gly(NCH2CH2Ph) = O=C(O)CNCCc1ccccc1; 4Pal = N[C@@H](Cc1ccncc1)C(=O)O

T1 sequence (P01137 279-390 limits assumed): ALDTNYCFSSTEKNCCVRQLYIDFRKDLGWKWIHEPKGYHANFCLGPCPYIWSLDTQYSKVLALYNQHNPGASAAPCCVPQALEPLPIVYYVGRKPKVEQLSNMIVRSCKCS

B1: TGFb1_003 (peptide)
peptide: {CH2CO}-FWVVNVYDD[Gly(NCH2CH2Ph)]V[1Nal]YHVCG
modifications: thioether N-16
notes: cyclic peptide; C-terminal G is a linker
Take B1: the dissociation constant (Kd) in assay [1] stood at 0.72 nM. Besides, in assay [2], the “SBE reporter % inhibition, peptide 0.075 nM” value amounted to 1.6%; the “SBE reporter % inhibition, peptide 0.75 nM” value was 65.2%; the “SBE reporter % inhibition, peptide 7.5 nM” value came out at 97.3%; the “SBE reporter % inhibition, peptide 75.0 nM” value was 98.8%.

B2: TGFb1_009 (peptide)
peptide: {CH2CO}-F[1Nal]VVNV[4Pal]DD[Gly(NCH2CH2Ph)]V[1Nal][4Pal]HVCG
modifications: thioether N-16; not fully specified (C-terminus)
notes: as for B1
B2: the dissociation constant (Kd) in assay [1] came to 0.58 nM. In addition, in assay [2], the “SBE reporter % inhibition, peptide 0.075 nM” value was 2.7%; the “SBE reporter % inhibition, peptide 0.75 nM” value was found to be 53%; the “SBE reporter % inhibition, peptide 7.5 nM” value is 94.8%; the “SBE reporter % inhibition, peptide 75.0 nM” value came to 99.6%.

B3: TGFb1_011 (peptide)
peptide: {CH2CO}-F[1Nal]VVNV[4Pal]D[KCOpipzaa][Gly(NCH2CH2Ph)]V[1Nal]YHVCG-NH2
modifications: thioether N-16
SMILES: CC(C)[C@@H]1NC(=O)CN(CCc2ccccc2)C(=O)[C@H](CCCCNC(=O)N2CCN(CC(=O)O)CC2)NC(=O)[C@H](CC(=O)O)NC(=O)[C@H](Cc2ccncc2)NC(=O)[C@H](C(C)C)NC(=O)[C@H](CC(N)=O)NC(=O)[C@H](C(C)C)NC(=O)[C@H](C(C)C)NC(=O)[C@H](Cc2cccc3ccccc23)NC(=O)[C@H](Cc2ccccc2)NC(=O)CSC[C@@H](C(=O)NCC(N)=O)NC(=O)[C@H](C(C)C)NC(=O)[C@H](Cc2c[nH]cn2)NC(=O)[C@H](Cc2ccc(O)cc2)NC(=O)[C@H](Cc2cccc3ccccc23)NC1=O
notes: as for B1
B3: the Kd in assay [1] worked out at 0.62 nM. For the same molecule, in assay [2], the “SBE reporter % inhibition, peptide 0.075 nM” value is 6.1%; the “SBE reporter % inhibition, peptide 0.75 nM” value worked out at 76.3%; the “SBE reporter % inhibition, peptide 7.5 nM” value came to 97.9%; the “SBE reporter % inhibition, peptide 75.0 nM” value is 100%.

B4: TGFb1_005 (peptide)
peptide: {CH2CO}-F[Trp(7-aza)]VVNVYDD[Gly(NCH2CH2Ph)]V[1Nal]YHVCG
modifications: thioether N-16; not fully specified (C-terminus)
notes: as for B1
With B4, in assay [1], the Kd turned out to be 1.15 nM. In assay [2], the “SBE reporter % inhibition, peptide 0.075 nM” value is 0.4%; the “SBE reporter % inhibition, peptide 0.75 nM” value came to 47%; the “SBE reporter % inhibition, peptide 7.5 nM” value came to 90.8%; the “SBE reporter % inhibition, peptide 75.0 nM” value was found to be 98.9%.

B5: TGFb1_001 (peptide)
peptide: {CH2CO}-F[1Nal]VVNVYDD[Gly(NCH2CH2Ph)]V[1Nal]YHVCG
modifications: thioether N-16
notes: as for B1
Consider B5, for which, in assay [1], the Kd was found to be 0.55 nM. In assay [2], the “SBE reporter % inhibition, peptide 0.075 nM” value is 19.7%; the “SBE reporter % inhibition, peptide 0.75 nM” value was found to be 69.7%; the “SBE reporter % inhibition, peptide 7.5 nM” value is 98.1%; the “SBE reporter % inhibition, peptide 75.0 nM” value turned out to be 101%.

B6: TGFb1_007 (peptide)
peptide: {CH2CO}-F[1Nal]VKNV[4Pal]DD[Gly(NCH2CH2Ph)]V[1Nal]YHVCG
modifications: thioether N-16; not fully specified (C-terminus)
notes: as for B1
As for B6, the dissociation constant Kd in assay [1] was found to be 2.7 nM. Also, in assay [2], the “SBE reporter % inhibition, peptide 0.075 nM” value is 0.1%; the “SBE reporter % inhibition, peptide 0.75 nM” value turned out to be 37.5%; the “SBE reporter % inhibition, peptide 7.5 nM” value amounted to 83.5%; the “SBE reporter % inhibition, peptide 75.0 nM” value was determined as 96.7%.

B7: TGFb1_014 (peptide)
peptide: {CH2CO}-F[1Nal]V[KCOmeglumine]NV[4Pal]DD[Gly(NCH2CH2Ph)]V[1Nal]YHVCG-NH2
modifications: thioether N-16
SMILES: CC(C)[C@@H]1NC(=O)CN(CCc2ccccc2)C(=O)[C@H](CC(=O)O)NC(=O)[C@H](CC(=O)O)NC(=O)[C@H](Cc2ccncc2)NC(=O)[C@H](C(C)C)NC(=O)[C@H](CC(N)=O)NC(=O)[C@H](CCCCNC(=O)N(C)C[C@H](O)[C@@H](O)[C@H](O)[C@H](O)CO)NC(=O)[C@H](C(C)C)NC(=O)[C@H](Cc2cccc3ccccc23)NC(=O)[C@H](Cc2ccccc2)NC(=O)CSC[C@@H](C(=O)NCC(N)=O)NC(=O)[C@H](C(C)C)NC(=O)[C@H](Cc2c[nH]cn2)NC(=O)[C@H](Cc2ccc(O)cc2)NC(=O)[C@H](Cc2cccc3ccccc23)NC1=O
notes: as for B1
B7: the dissociation constant Kd in assay [1] amounted to 0.66 nM. Besides, in assay [2], the “SBE reporter % inhibition, peptide 0.075 nM” value was determined as 0%; the “SBE reporter % inhibition, peptide 0.75 nM” value stood at 64.8%; the “SBE reporter % inhibition, peptide 7.5 nM” value is 97.2%; the “SBE reporter % inhibition, peptide 75.0 nM” value is 98.8%.

B8: TGFb1_004 (peptide)
peptide: {CH2CO}-F[Trp(6-aza)]VVNVYDD[Gly(NCH2CH2Ph)]V[1Nal]YHVCG
modifications: thioether N-16
notes: as for B1
As for B8, the Kd in assay [1] is 1.49 nM. In assay [2], the “SBE reporter % inhibition, peptide 0.075 nM” value is 0%; the “SBE reporter % inhibition, peptide 0.75 nM” value was found to be 0.9%; the “SBE reporter % inhibition, peptide 7.5 nM” value is 70.1%; the “SBE reporter % inhibition, peptide 75.0 nM” value was found to be 94.9%.

B9: TGFb1_015 (peptide)
peptide: {CH2CO}-F[1Nal]VVNV[4Pal]D[KCOmeglumine][Gly(NCH2CH2Ph)]V[1Nal]YHVCG-NH2
modifications: thioether N-16
SMILES: CC(C)[C@@H]1NC(=O)CN(CCc2ccccc2)C(=O)[C@H](CCCCNC(=O)N(C)C[C@H](O)[C@@H](O)[C@H](O)[C@H](O)CO)NC(=O)[C@H](CC(=O)O)NC(=O)[C@H](Cc2ccncc2)NC(=O)[C@H](C(C)C)NC(=O)[C@H](CC(N)=O)NC(=O)[C@H](C(C)C)NC(=O)[C@H](C(C)C)NC(=O)[C@H](Cc2cccc3ccccc23)NC(=O)[C@H](Cc2ccccc2)NC(=O)CSC[C@@H](C(=O)NCC(N)=O)NC(=O)[C@H](C(C)C)NC(=O)[C@H](Cc2c[nH]cn2)NC(=O)[C@H](Cc2ccc(O)cc2)NC(=O)[C@H](Cc2cccc3ccccc23)NC1=O
notes: as for B1
Regarding B9, the Kd in assay [1] worked out at 0.59 nM. Moreover, in assay [2], the “SBE reporter % inhibition, peptide 0.075 nM” value was 0%; the “SBE reporter % inhibition, peptide 0.75 nM” value turned out to be 76.9%; the “SBE reporter % inhibition, peptide 7.5 nM” value stood at 98.7%; the “SBE reporter % inhibition, peptide 75.0 nM” value came out at 98.4%.

B10: TGFb1_002 (peptide)
peptide: {CH2CO}-F[1Nal]VVNVYDD[Gly(NCH2CH2Ph)]V[1Nal]YHVC
modifications: thioether N-16
notes: cyclic peptide
Take B10: the dissociation constant (Kd) in assay [1] was found to be 0.46 nM.

B11: TGFb1_010 (peptide)
peptide: {CH2CO}-F[1Nal]V[KCOpipzaa]NV[4Pal]DD[Gly(NCH2CH2Ph)]V[1Nal]YHVCG
modifications: thioether N-16; not fully specified (C-terminus)
notes: as for B1
With B11, the Kd in assay [1] amounted to 0.9 nM. In addition, in assay [2], the “SBE reporter % inhibition, peptide 0.075 nM” value was determined as 2%; the “SBE reporter % inhibition, peptide 0.75 nM” value turned out to be 63.8%; the “SBE reporter % inhibition, peptide 7.5 nM” value stood at 97.9%; the “SBE reporter % inhibition, peptide 75.0 nM” value worked out at 99.9%.

B12: TGFb1_008 (peptide)
peptide: {CH2CO}-F[Trp(7-aza)]VVNV[4Pal]DD[Gly(NCH2CH2Ph)]V[1Nal]YHVCG
modifications: thioether N-16; not fully specified (C-terminus)
notes: as for B1
For B12, the equilibrium dissociation constant (Kd) in assay [1] stood at 4.64 nM. Besides, in assay [2], the “SBE reporter % inhibition, peptide 0.075 nM” value came to 3.8%; the “SBE reporter % inhibition, peptide 0.75 nM” value was determined as 56.8%; the “SBE reporter % inhibition, peptide 7.5 nM” value is 94.6%; the “SBE reporter % inhibition, peptide 75.0 nM” value was found to be 98.4%.

One may read the Kd as the free concentration of one partner at which half of the binding sites on the other are occupied at equilibrium, for simple one-to-one binding.
